According to PMC6728143, “Distinct mechanisms of microRNA sorting into cancer cell-derived extracellular vesicle subtypes”:

T1: Lupus La protein (La) (Homo sapiens, UniProt P05455 1-408)
T1 sequence: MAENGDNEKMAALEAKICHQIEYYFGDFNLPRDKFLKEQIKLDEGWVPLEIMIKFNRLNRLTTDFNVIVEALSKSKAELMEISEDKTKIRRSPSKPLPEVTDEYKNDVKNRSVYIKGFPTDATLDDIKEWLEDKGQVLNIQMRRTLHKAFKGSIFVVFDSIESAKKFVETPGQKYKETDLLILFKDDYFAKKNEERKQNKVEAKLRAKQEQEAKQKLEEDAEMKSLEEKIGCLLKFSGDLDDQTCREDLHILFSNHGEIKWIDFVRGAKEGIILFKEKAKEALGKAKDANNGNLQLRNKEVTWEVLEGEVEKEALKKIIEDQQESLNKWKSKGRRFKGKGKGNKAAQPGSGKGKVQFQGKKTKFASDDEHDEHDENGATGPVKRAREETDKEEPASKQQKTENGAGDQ

B1: miR-122-5p WT (ssRNA)
RNA: UGGAGUGUGACAAUGGUGUUUG
B2: miR-122 3'mut (ssRNA)
RNA: UGGAGUGUGACAAUGGUGAAAG
B3: miR-122 5'mut (ssRNA)
RNA: ACACGUGUGACAAUGGUGUUUG

Assays:
Lupus La protein (La) [1] = target: T1, Lupus La protein (La); test: EMSA; EMSA: 1 nM RNA, La 250 pM-2 uM; 25 mM Tris pH 8, 100 mM KCl, 1.5 mM MgCl2, 0.2 mM EGTA, 0.05% NP-40, 50 ug/ml heparin; 30 C 30 min, then ice 10 min; 6% gel at 4 C; Hill fit; conditions: protein: recombinant; tags: N-terminal 6xHis; label: 5' IRDye800CW
Lupus La protein (La) [2] = target: T1, Lupus La protein (La); test: as above; conditions: protein: recombinant; tags: N-terminal 6xHis; label: 5' IRDye800CW; remark: listed apart in the source

Binder	Kd (Lupus La protein (La) [1]) [nM]	binding signal (Lupus La protein (La) [2])
B1	4.8	–
B2	538	–
B3	–	~10 fold lower affinity than WT
